Experimental data: US20190241886A1

Target: CD137 (soluble antigen for staining of yeast) (human) (UniProt Q07011)
Assay: flow cytometry of yeast displaying the scFv, stained with human CD137; number printed over the dot plot, y axis CD137 binding (FL2-A PE-A), x axis scFv display

Sequence of CD137 (soluble antigen for staining of yeast) (human) (Q07011 24-186 limits assumed): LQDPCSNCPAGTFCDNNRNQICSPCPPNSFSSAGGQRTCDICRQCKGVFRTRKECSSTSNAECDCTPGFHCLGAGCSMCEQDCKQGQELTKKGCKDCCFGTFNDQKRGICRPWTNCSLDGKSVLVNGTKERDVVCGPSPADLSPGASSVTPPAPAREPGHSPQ

Y: 19200
B1: scFv of parental CD137 antibody TY21242 displayed on yeast (scFv, part only; not given: linker, Aga2 and tag, V domains shown, not shown: another chain or arm of the molecule; large carriers; small tags and cut ends)
VL: DIQLTQSPSSLSASVGDRVTITCRASQSIGSYLAWYQQKPGKAPKLLIYDASNLETGVPSRFSGSGSGTDFTLTISSLQPEDFATYYCQQGYYLWTFGQGTKVEIK
VH: EVQLVESGGGLVQPGGSLRLSCAASGFSLSTGGVGVGWIRQAPGKGLEWLALIDWADDKYYSPSLKSRLTISRDNSKNTLYLQLNSLRAEDTAVYYCARGGSDTVIGDWFAYWGQGTLVTVSS
